Test results as given in patent publication US20140087995A1 (published 2014).
Substitutions are numbered along the chain they refer to. Blank lines part the entries; values can stand above or below the binder they belong to. Numbered stars: 1 amine (or outer) side, 2 acyl side, 3 side chain; on linkers, the order of the positions; unused ones are H or OH. Bridge positions count the residues as written; N and C are the ends. * marks the point of attachment. C20 diacid = O=C(O)CCCCCCCCCCCCCCCCCCC(=O)*; γGlu = O=C(O)[C@H](CCC(=O)[*:2])N[*:1]; AEEA = NCCOCCOCC(=O)O

Biological target: T1, human amylin receptor (human, UniProt P30988 25-474; O60896 24-148, limits assumed)
T1 construct: whole, on cells; Calcitonin receptor plus RAMP-3 gives the amylin 3(a) receptor; membranes of Amylin 3(a)/CRE-luc cells were used; also called hAmylin-R; hAmylinR
T1 sequence (looked up) 1: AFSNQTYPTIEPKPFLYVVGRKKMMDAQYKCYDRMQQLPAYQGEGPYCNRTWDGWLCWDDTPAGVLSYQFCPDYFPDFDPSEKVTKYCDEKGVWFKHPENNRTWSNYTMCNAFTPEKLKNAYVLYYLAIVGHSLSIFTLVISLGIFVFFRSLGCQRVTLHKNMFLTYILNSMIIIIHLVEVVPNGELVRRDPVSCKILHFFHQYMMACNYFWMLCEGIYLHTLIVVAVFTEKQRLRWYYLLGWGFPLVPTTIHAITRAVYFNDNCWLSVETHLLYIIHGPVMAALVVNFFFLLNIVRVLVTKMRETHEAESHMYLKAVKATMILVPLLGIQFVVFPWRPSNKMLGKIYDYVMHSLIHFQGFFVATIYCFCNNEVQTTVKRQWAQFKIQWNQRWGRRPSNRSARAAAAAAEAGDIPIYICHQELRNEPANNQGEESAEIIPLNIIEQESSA
T1 sequence (looked up) 2: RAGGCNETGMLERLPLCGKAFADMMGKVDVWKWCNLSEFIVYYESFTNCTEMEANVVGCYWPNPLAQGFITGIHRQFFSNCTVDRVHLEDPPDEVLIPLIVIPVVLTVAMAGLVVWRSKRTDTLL
Assay: SPA competition binding, displacement of 125I-rat amylin from membranes with human amylin 3(a) receptor (Assay V)
Experimental: The binding assay was performed using scintillation proximity assay (SPA) beads (RPNQ0001) from PerkinElmer and cell membranes from the Amylin 3(a)/CRE-luc cells (as described in Assay (II)) were used. Membranes were prepared in the following way; the cells were rinsed with PBS and incubated with Versene for approximately 5 min before harvesting. The cells were flushed with PBS and the cell-suspension was centrifuged for 5 min at 1000 rpm. Cells were homogenized (ultrathurrax) in a buffer containing 20 mM Na-HEPES and 10 mM EDTA (pH 7.4) and centrifuged at 20.000 rpm for 15 min. The resulting pellet was resuspended, homogenized and centrifuged (20.000 rpm, 15 min) in a buffer containing 20 mM Na-HEPES and 0.1 mM EDTA (pH 7.4, buffer 2). The resulting pellet was resuspended in buffer 2 and protein concentration was measured (BCA protein Assay, Pierce). The homogenate was kept cold during the whole procedure. The membranes were kept at −80° C. until use. The assay was performed in a 384 well Optiplate (PerkinElmer) in a total volume of 40 ul. Membranes were mixed with SPA beads. Final concentration of membranes 35 ng/μL final and SPA beads was 0.05 mg/well. Test-compounds were dissolved in DMSO and further diluted in assay buffer (50 mM Hepes, pH 7.4, 1 mM CaCl2, 5 mM MgCl₂, 0.1% OA and 0.02% Tween20). […] The final mixture was incubated with shaking at 400 rpm for 120 min at 25° C. prior to centrifugation (1500 rpm, 10 min). Samples were analyzed on TopCounter™ (Packard). The IC₅₀ was calculated using (one site binding competition analysis) GraphPad Prism5 as a measure of receptor affinity.

B2: N^α1-[(4S)-4-carboxy-4-(19-carboxynonadecanoylamino)butanoyl]-[Arg17,Pro21,Pro27,Arg34]-h-amylin (peptide)
peptide: KCNTATCATQRLANFLRHSSPNFGAIPSSTNVGRNTY
modifications: C20 diacid-gGlu on the alpha amino group of the N-terminal residue; disulfide Cys2-Cys7 and C-terminal amide as in human amylin
notes: also called 17R, 21P, 27P, 34R
IC50: 0.665 nM

B3: N^α1-[(4S)-4-carboxy-4-(19-carboxynonadecanoylamino)butanoyl]-[Arg17,Pro21,Pro27,His34]-h-amylin (peptide)
peptide: B2 peptide with R34H
modifications: C20 diacid-gGlu on the alpha amino group of the N-terminal residue; disulfide Cys2-Cys7 and C-terminal amide as in human amylin
notes: also called 17R, 21P, 27P, 34H
IC50: 0.549 nM

B4: N^α1-[(4S)-4-carboxy-4-(19-carboxynonadecanoylamino)butanoyl]-[Arg17,Pro21,Pro27,Pro31,Glu35]-h-amylin (peptide)
peptide: {C20 diacid-γGlu}-KCNTATCATQRLANFLRHSSPNFGAIPSSTPVGSETY-NH2
modifications: disulfide 2-7
SMILES: CC[C@H](C)[C@H](NC(=O)[C@H](C)NC(=O)CNC(=O)[C@H](Cc1ccccc1)NC(=O)[C@H](CC(N)=O)NC(=O)[C@@H]1CCCN1C(=O)[C@H](CO)NC(=O)[C@H](CO)NC(=O)[C@H](Cc1c[nH]cn1)NC(=O)[C@H](CCCNC(=N)N)NC(=O)[C@H](CC(C)C)NC(=O)[C@H](Cc1ccccc1)NC(=O)[C@H](CC(N)=O)NC(=O)[C@H](C)NC(=O)[C@H](CC(C)C)NC(=O)[C@H](CCCNC(=N)N)NC(=O)[C@H](CCC(N)=O)NC(=O)[C@@H](NC(=O)[C@H](C)NC(=O)[C@@H]1CSSC[C@H](NC(=O)[C@H](CCCCN)NC(=O)CC[C@H](NC(=O)CCCCCCCCCCCCCCCCCCC(=O)O)C(=O)O)C(=O)N[C@@H](CC(N)=O)C(=O)N[C@@H]([C@@H](C)O)C(=O)N[C@@H](C)C(=O)N[C@@H]([C@@H](C)O)C(=O)N1)[C@@H](C)O)C(=O)N1CCC[C@H]1C(=O)N[C@@H](CO)C(=O)N[C@@H](CO)C(=O)N[C@H](C(=O)N1CCC[C@H]1C(=O)N[C@H](C(=O)NCC(=O)N[C@@H](CO)C(=O)N[C@@H](CCC(=O)O)C(=O)N[C@H](C(=O)N[C@@H](Cc1ccc(O)cc1)C(N)=O)[C@@H](C)O)C(C)C)[C@@H](C)O
notes: also called 17R, 21P, 27P, 31P, 35E
IC50: 0.61 nM

B5: N^α1-[2-[2-[2-[[2-[2-[2-[[(4S)-4-carboxy-4-(19-carboxynonadecanoylamino)butanoyl]amino]ethoxy]ethoxy]acetyl]amino]ethoxy]ethoxy]acetyl]-[Glu14,Arg17,Pro21,Pro27 … (peptide)
peptide: {C20 diacid-γGlu-AEEA-AEEA}-KCNTATCATQRLAEFLRHSSPNFGAIPSSTNVGSNTP-NH2
modifications: disulfide 2-7
SMILES: CC[C@H](C)[C@H](NC(=O)[C@H](C)NC(=O)CNC(=O)[C@H](Cc1ccccc1)NC(=O)[C@H](CC(N)=O)NC(=O)[C@@H]1CCCN1C(=O)[C@H](CO)NC(=O)[C@H](CO)NC(=O)[C@H](Cc1c[nH]cn1)NC(=O)[C@H](CCCNC(=N)N)NC(=O)[C@H](CC(C)C)NC(=O)[C@H](Cc1ccccc1)NC(=O)[C@H](CCC(=O)O)NC(=O)[C@H](C)NC(=O)[C@H](CC(C)C)NC(=O)[C@H](CCCNC(=N)N)NC(=O)[C@H](CCC(N)=O)NC(=O)[C@@H](NC(=O)[C@H](C)NC(=O)[C@@H]1CSSC[C@H](NC(=O)[C@H](CCCCN)NC(=O)COCCOCCNC(=O)COCCOCCNC(=O)CC[C@H](NC(=O)CCCCCCCCCCCCCCCCCCC(=O)O)C(=O)O)C(=O)N[C@@H](CC(N)=O)C(=O)N[C@@H]([C@@H](C)O)C(=O)N[C@@H](C)C(=O)N[C@@H]([C@@H](C)O)C(=O)N1)[C@@H](C)O)C(=O)N1CCC[C@H]1C(=O)N[C@@H](CO)C(=O)N[C@@H](CO)C(=O)N[C@H](C(=O)N[C@@H](CC(N)=O)C(=O)N[C@H](C(=O)NCC(=O)N[C@@H](CO)C(=O)N[C@@H](CC(N)=O)C(=O)N[C@H](C(=O)N1CCC[C@H]1C(N)=O)[C@@H](C)O)C(C)C)[C@@H](C)O
notes: also called 14E, 17R, 21P, 27P, 37P
IC50: 0.217 nM

B6: N^α1-[2-[2-[2-[[2-[2-[2-[[(4S)-4-carboxy-4-(19-carboxynonadecanoylamino)butanoyl]amino]ethoxy]ethoxy]acetyl]amino]ethoxy]ethoxy]acetyl]-[Glu14,Arg17,Pro21,Pro27 … (peptide)
peptide: B2 peptide with N14E, R34S
modifications: C20 diacid-gGlu-2xOEG on the alpha amino group of the N-terminal residue; disulfide Cys2-Cys7 and C-terminal amide as in human amylin
notes: also called 14E, 17R, 21P, 27P
IC50: 0.556 nM

Results, then the binder that gave them:

IC50: 0.597 nM
B1: N^α1 N^α1-[(4S)-4-carboxy-4-[[(4S)-4-carboxy-4-(19-carboxynonadecanoylamino)butanoyl]amino]butanoyl]-[Glu14,Arg17,Pro21,Pro27]-h-amylin (peptide)
peptide: {C20 diacid-γGlu-γGlu}-KCNTATCATQRLAEFLRHSSPNFGAIPSSTNVGSNTY-NH2
modifications: disulfide 2-7
SMILES: CC[C@H](C)[C@H](NC(=O)[C@H](C)NC(=O)CNC(=O)[C@H](Cc1ccccc1)NC(=O)[C@H](CC(N)=O)NC(=O)[C@@H]1CCCN1C(=O)[C@H](CO)NC(=O)[C@H](CO)NC(=O)[C@H](Cc1c[nH]cn1)NC(=O)[C@H](CCCNC(=N)N)NC(=O)[C@H](CC(C)C)NC(=O)[C@H](Cc1ccccc1)NC(=O)[C@H](CCC(=O)O)NC(=O)[C@H](C)NC(=O)[C@H](CC(C)C)NC(=O)[C@H](CCCNC(=N)N)NC(=O)[C@H](CCC(N)=O)NC(=O)[C@@H](NC(=O)[C@H](C)NC(=O)[C@@H]1CSSC[C@H](NC(=O)[C@H](CCCCN)NC(=O)CC[C@H](NC(=O)CC[C@H](NC(=O)CCCCCCCCCCCCCCCCCCC(=O)O)C(=O)O)C(=O)O)C(=O)N[C@@H](CC(N)=O)C(=O)N[C@@H]([C@@H](C)O)C(=O)N[C@@H](C)C(=O)N[C@@H]([C@@H](C)O)C(=O)N1)[C@@H](C)O)C(=O)N1CCC[C@H]1C(=O)N[C@@H](CO)C(=O)N[C@@H](CO)C(=O)N[C@H](C(=O)N[C@@H](CC(N)=O)C(=O)N[C@H](C(=O)NCC(=O)N[C@@H](CO)C(=O)N[C@@H](CC(N)=O)C(=O)N[C@H](C(=O)N[C@@H](Cc1ccc(O)cc1)C(N)=O)[C@@H](C)O)C(C)C)[C@@H](C)O
notes: as for B6

IC50: 0.082 nM
B7: N^α1-[(4S)-4-carboxy-4-(19-carboxynonadecanoylamino)butanoyl]-[Asp14,Arg17,Pro21,Pro27,Pro37]-h-amylin (peptide)
peptide: {C20 diacid-γGlu}-KCNTATCATQRLADFLRHSSPNFGAIPSSTNVGSNTP-NH2
modifications: disulfide 2-7
SMILES: CC[C@H](C)[C@H](NC(=O)[C@H](C)NC(=O)CNC(=O)[C@H](Cc1ccccc1)NC(=O)[C@H](CC(N)=O)NC(=O)[C@@H]1CCCN1C(=O)[C@H](CO)NC(=O)[C@H](CO)NC(=O)[C@H](Cc1c[nH]cn1)NC(=O)[C@H](CCCNC(=N)N)NC(=O)[C@H](CC(C)C)NC(=O)[C@H](Cc1ccccc1)NC(=O)[C@H](CC(=O)O)NC(=O)[C@H](C)NC(=O)[C@H](CC(C)C)NC(=O)[C@H](CCCNC(=N)N)NC(=O)[C@H](CCC(N)=O)NC(=O)[C@@H](NC(=O)[C@H](C)NC(=O)[C@@H]1CSSC[C@H](NC(=O)[C@H](CCCCN)NC(=O)CC[C@H](NC(=O)CCCCCCCCCCCCCCCCCCC(=O)O)C(=O)O)C(=O)N[C@@H](CC(N)=O)C(=O)N[C@@H]([C@@H](C)O)C(=O)N[C@@H](C)C(=O)N[C@@H]([C@@H](C)O)C(=O)N1)[C@@H](C)O)C(=O)N1CCC[C@H]1C(=O)N[C@@H](CO)C(=O)N[C@@H](CO)C(=O)N[C@H](C(=O)N[C@@H](CC(N)=O)C(=O)N[C@H](C(=O)NCC(=O)N[C@@H](CO)C(=O)N[C@@H](CC(N)=O)C(=O)N[C@H](C(=O)N1CCC[C@H]1C(N)=O)[C@@H](C)O)C(C)C)[C@@H](C)O
notes: also called 14D, 17R, 21P, 27P, 37P

IC50: 0.577 nM
B8: N^α1-[(4S)-4-carboxy-4-(19-carboxynonadecanoylamino)butanoyl]-[Arg17,Pro21,Pro27,Pro34,Glu35]-h-amylin (peptide)
peptide: {C20 diacid-γGlu}-KCNTATCATQRLANFLRHSSPNFGAIPSSTNVGPETY-NH2
modifications: disulfide 2-7
SMILES: CC[C@H](C)[C@H](NC(=O)[C@H](C)NC(=O)CNC(=O)[C@H](Cc1ccccc1)NC(=O)[C@H](CC(N)=O)NC(=O)[C@@H]1CCCN1C(=O)[C@H](CO)NC(=O)[C@H](CO)NC(=O)[C@H](Cc1c[nH]cn1)NC(=O)[C@H](CCCNC(=N)N)NC(=O)[C@H](CC(C)C)NC(=O)[C@H](Cc1ccccc1)NC(=O)[C@H](CC(N)=O)NC(=O)[C@H](C)NC(=O)[C@H](CC(C)C)NC(=O)[C@H](CCCNC(=N)N)NC(=O)[C@H](CCC(N)=O)NC(=O)[C@@H](NC(=O)[C@H](C)NC(=O)[C@@H]1CSSC[C@H](NC(=O)[C@H](CCCCN)NC(=O)CC[C@H](NC(=O)CCCCCCCCCCCCCCCCCCC(=O)O)C(=O)O)C(=O)N[C@@H](CC(N)=O)C(=O)N[C@@H]([C@@H](C)O)C(=O)N[C@@H](C)C(=O)N[C@@H]([C@@H](C)O)C(=O)N1)[C@@H](C)O)C(=O)N1CCC[C@H]1C(=O)N[C@@H](CO)C(=O)N[C@@H](CO)C(=O)N[C@H](C(=O)N[C@@H](CC(N)=O)C(=O)N[C@H](C(=O)NCC(=O)N1CCC[C@H]1C(=O)N[C@@H](CCC(=O)O)C(=O)N[C@H](C(=O)N[C@@H](Cc1ccc(O)cc1)C(N)=O)[C@@H](C)O)C(C)C)[C@@H](C)O
notes: also called 17R, 21P, 27P, 34P, 35E
